Positions count from the first letter of the chain named. Read-outs that look alike come from different tables or passages of the source.
Assays:
murine IL-11 [1] = target: T1, murine IL-11 (mouse, UniProt P47873 22-199); assay: Tri-complex ELISA, mIL-11 + mIL-11Ra-Fc + mgp130-Fc, inhibition of complex formation
T1 construct: Invigate recombinant protein; biotinylated when immobilized in the Di-complex ELISA; also called mIL11; mIL-11
T1 sequence: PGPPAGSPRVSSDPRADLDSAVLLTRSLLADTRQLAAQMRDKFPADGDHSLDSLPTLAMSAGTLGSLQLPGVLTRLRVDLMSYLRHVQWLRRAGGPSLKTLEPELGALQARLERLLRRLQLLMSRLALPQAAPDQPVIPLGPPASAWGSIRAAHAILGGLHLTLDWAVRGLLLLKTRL
Description: In a first step, 25 μl of goat anti human IgG (Sigma, #12136), diluted 1:1000 in coating buffer (Candor, #121125) was coated on the plate at 4° C. overnight. Next day, the plate was washed one time with 50 μl PBST and then blocked with 50 μl SmartBlock (Candor, #113125) for one hour at room temperature (RT). […] After three additional washes of the coated and blocked microtiter plate with PBS-T, 25 μl of each mixture were added and the assay plate was incubated for one hour at room temperature. After three additional washes, anti-mouse-gp130 biotinylated antibody (R&D, #BAF468) or anti-human gp130 biotinylated antibody (R&D, #BAF228), both 1:1000 in 10% SmartBlock PBS-T, was added and incubated for 1 hour at RT. After three additional washes, a Streptavidin-Peroxidase conjugate (Sigma, #S5512) 1:1000 in SmartBlock PBS-T was added and incubated for one hour at room temperature. After a final three washes, AmplexRed (Fisher Scientific, A12222), 1/1000 in PBS, 0,003% H₂O₂, was added as substrate and incubated for 15 min at RT in the dark. Then, the fluorescence was measured with a plate reader at 535/595 nm. Signals from dose responses were used to calculate IC50 values using GraphPad Prism software. Efficacy was calculated as [(signal measured at lowest antibody concentration−signal measured at the highest antibody concentration)×100] divided by (signal measured at lowest antibody concentration−signal measured in the absence of antibody at an IL11 concentration of 8.2E-11 [M]).
(§1) IgG converted antibodies were subjected to the experimental assay procedure described in Example 19 and IC50 [M], respectively efficacy (%) were calculated accordingly.

human IL-11 [2] = target: T2, human IL-11 (human, UniProt P20809 22-199); assay: cell-based or functional assay
T2 sequence: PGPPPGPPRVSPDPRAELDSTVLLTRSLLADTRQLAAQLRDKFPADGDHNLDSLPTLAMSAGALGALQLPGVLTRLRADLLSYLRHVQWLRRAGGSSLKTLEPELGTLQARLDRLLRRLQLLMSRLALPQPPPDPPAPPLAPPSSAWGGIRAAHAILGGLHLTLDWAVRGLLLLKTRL

murine IL-11 [3] = target: T1, murine IL-11; assay: cell-based or functional assay
human IL-11 [4] = target: T2, human IL-11; assay: cell-based or functional assay; remark: listed apart in the source
rat IL-11 = target: T3, rat IL-11 (rat, UniProt Q99MF5 22-199); assay: cell-based or functional assay
T3 sequence: T1 sequence with S50N, L84F, G94A, V137A, I138V

murine IL-11 [5] = target: T1, murine IL-11; assay: cell-based or functional assay; remark: listed apart in the source
cynomolgus IL-11 = target: T4, cynomolgus IL-11 (cynomolgus, UniProt P20808 22-199); assay: cell-based or functional assay
T4 sequence: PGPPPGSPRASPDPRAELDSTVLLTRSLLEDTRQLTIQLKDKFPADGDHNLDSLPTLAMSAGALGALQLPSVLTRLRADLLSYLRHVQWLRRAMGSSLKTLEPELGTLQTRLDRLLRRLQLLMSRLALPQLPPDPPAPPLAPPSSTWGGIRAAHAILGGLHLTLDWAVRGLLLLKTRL

human IL-11 [6] = target: T2, human IL-11; assay: Tri-complex ELISA, hIL-11 + mIL-11Ra-Fc + hgp130-Fc, inhibition of complex formation
Description: In the Tri-complex ELISA format IL-11 antibodies are tested for their ability to inhibit the formation of a complex consisting of murine or human gp130-Fc fusion protein, with murine or human IL-11, and a murine IL11RA-Fc fusion protein. The assay format was adapted according to FIG. 18 (a, b), depending on whether murine or human IL-11 IgG antibodies were tested.
as §1

human IL2Ra = target: T5, human IL2Ra (human, UniProt P01589 22-240, limits assumed); assay: ELISA on coated IL2Ra, signal ratio to isotype control TPP-10159 at 3.3E-7 M antibody
T5 construct: coated on the ELISA plate; also called IL-2 receptor alpha
T5 sequence (looked up): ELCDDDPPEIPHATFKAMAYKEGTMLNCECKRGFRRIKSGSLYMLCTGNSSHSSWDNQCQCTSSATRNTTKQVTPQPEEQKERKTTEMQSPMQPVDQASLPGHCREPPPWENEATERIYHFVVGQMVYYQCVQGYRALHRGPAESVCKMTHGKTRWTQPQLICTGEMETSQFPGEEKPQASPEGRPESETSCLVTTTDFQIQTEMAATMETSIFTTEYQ
Description: IL2RA (Peprotech, Germany, #200-02RC) was coated at 1 or 0 μg/ml (buffer only control) in 30 μl coating buffer (Candor, #113500) per well on a 384 well microtiter plate (Maxisorb, Nunc, #460518) over night at 4-8° C. After two washes with 50 μl/well washing buffer (PBS+0.05% Tween, pH 7.4), the plates were incubated for two hours at room temperature with 50 μl/well SmartBlock (Candor, #113500). After blocking, the plates were washed three times with washing buffer. Then, a dilution series of the respective antibody (1E-7 [M] down to 2E-13 [M]) in PBS+0.05% Tween, 10% SmartBlock were added in 30 μl to the microtiter plate and incubated for 90 min at room temperature. After three additional washes, 30 μl anti mouse IgG HRP-conjugated antibody (Biotechne, HAF007), diluted 1:1000 in PBS+0.05% Tween (pH 7.4), were added per well and incubated for one hour. After three additional washes, a mixture of Amplex red (Invitrogen, #12222, 10 mM stock solution in DMSO) 1:1000 diluted in PBS and H2O2 (30%, Merck, #107209)) diluted 1:10000 in PBS were added as substrate with 30 μl per well and incubated for 20 min in the dark. Relative fluorescence was measured with a microtiter plate reader at 535/590 nm.
IgG converted antibodies TPP-were tested for binding to IL2Ra as described in Example 20. The ratios of the signals obtained at an antibody concentration of 3.3E-7 [M] for IgG converted antibody versus the isotype control TPP-10159 were calculated and are shown in Table E22.

Efficacy (%) (murine IL-11 [1]): 45.8%
IC50 (murine IL-11 [1]): 31 nM
Efficacy (%), Stat3 reporter gene assay (human IL-11 [2]): 68.6%
IC50, Stat3 reporter gene assay (human IL-11 [2]): 8.7 nM
Efficacy (%), Stat3 reporter gene assay (murine IL-11 [3]): 46.7%
IC50, Stat3 reporter gene assay (murine IL-11 [3]): 28 nM
Efficacy (%), Stat3 reporter gene assay (human IL-11 [4]): 64%
Efficacy (%), Stat3 reporter gene assay (rat IL-11): 62.2%
IC50, Stat3 reporter gene assay (rat IL-11): 14 nM
Efficacy (%), Stat3 reporter gene assay (murine IL-11 [5]): 88.9%
IC50, Stat3 reporter gene assay (murine IL-11 [5]): 7.9 nM
Efficacy (%), Stat3 reporter gene assay (cynomolgus IL-11): 21.9%
Efficacy (%) (human IL-11 [6]): 45.8%
IC50 (human IL-11 [6]): 3.4 nM
Antibody/Isotype Control Ratio of IL-2Ra Binding Signals (human IL2Ra): 2.2 ratio
B1: TPP-23580 (antibody, mouse IgG1, kappa)
heavy: EVQLVQSGAEVKKPGASVKISCKASGYTFTDYNMDWVKQAPGQRLEWIGDINPHNGGPIYNQKFTGRATLTVDKSASTAYMELSSLRSEDTAVYYCARGELGHWYFDVWGQGTTVTVSSAKTTPPSVYPLAPGSAAQTNSMVTLGCLVKGYFPEPVTVTWNSGSLSSGVHTFPAVLQSDLYTLSSSVTVPSSTWPSETVTCNVAHPASSTKVDKKIVPRDCGCKPCICTVPEVSSVFIFPPKPKDVLTITLTPKVTCVVVDISKDDPEVQFSWFVDDVEVHTAQTQPREEQFNSTFRSVSELPIMHQDWLNGKEFKCRVNSAAFPAPIEKTISKTKGRPKAPQVYTIPPPKEQMAKDKVSLTCMITDFFPEDITVEWQWNGQPAENYKNTQPIMDTDGSYFVYSKLNVQKSNWEAGNTFTCSVLHEGLHNHHTEKSLSHSPGK
light: DIVLTQSPASLALSPGERATLSCRASKSVSTSGYSYIHWYQQKPGQPPRLLIYLASNLDSGVPARFSGSGSGTDFTLNIHPLEEEDFATYYCQHSRDLPPTFGQGTKLEIKRADAAPTVSIFPPSSEQLTSGGASVVCFLNNFYPKDINVKWKIDGSERQNGVLNSWTDQDSKDSTYSMSSTLTLTKDEYERHNSYTCEATHKTSTSPIVKSFNRNEC
notes: also called BSN 3C6 2.2-2.1-mIgG1Kappa; BSN 3C6 (WO2019238882)
